The results in this text go back to patent US20220323495A1 (NATIONAL RESEARCH COUNCIL OF CANADA, published 2022).

In assay [1] the target is T1, recombinant human wild-type EGFR protein, native (human, UniProt P00533 25-645).
T1 construct: Recombinant protein used as ELISA coat; also called EGFRwt; wt EGFR
Briefly: ELISA on coated native recombinant antigen; Exp 1, mAb supernatant. The protocol: (§1) Pre- and post-immune sera titers of animals were assessed by ELISA on recombinant EGFRvIII protein. Unless otherwise stated, all incubations were performed at room temperature. Briefly, half-area 96-well plates (Costar #3690) were coated with 25 μl per well of immunogen at 5 μg/ml in PBS and incubated overnight at 4° C. Microplates were washed three times in PBS and blocked for 30 min with PBS containing 1% bovine serum albumin (BSA, Sigma Cat#A7030). Blocking buffer was removed and 25 μl of serial dilutions of sera samples were added. After a 2-h incubation, microplates were washed 4 times with PBS-TWEEN™ 20 0.05% and 25 μl of a 1/5,000 dilution of alkaline phosphatase conjugated F(ab′)′₂ goat anti-mouse IgG (H+L, #115-056-062, Jackson Immunoresearch, Cedarlane, Burlington, ON) in blocking buffer was added. After a 1-h incubation, microplates were washed 4 times and 25 μl of p-nitrophenyl phosphate (pNPP) substrate (Sigma-Aldrich Canada Co., Oakville, ON) at 1 mg/ml in carbonate buffer at pH 9.6 was added and further incubated for 30 min. Absorbance was read at 405 nm using a SpectraMax 340 PC plate reader (Molecular Devices, Sunnyvale, Calif.).
(§2) To evaluate if monoclonal antibodies bind to a conformational epitope, an ELISA analysis on native and denatured recombinant human wild-type EGFR and EGFRvIII proteins were performed. […] Antigens at 1-2 mg/ml were denatured by incubation at 95° C. for 5 min in PBS containing DTT at 40 mM final concentration. They were then incubated on ice for 5 min and diluted at their final coating concentration for ELISA purpose.
(§3) mAbs were purified using HiTrap ProteinG HP 1 mL columns GE Healthcare cat no. 17-0404-01 and desalted using Zeba-spin desalting columns 5 mL (Pierce) pre-equilibrated in PBS and filter sterilized through […] membrane (Millipore). The final concentration of the antibody solutions was determined using a Nano-drop 2000 (ThermoScientific), using IgG as sample type. ELISA was performed as described above (serum titer determination) using 25 μl of mAb supernatant (Exp 1) or purified mAb at 1 μg/ml (Exp 2).

Assay [2] addresses T2, recombinant human EGFRvIII protein, native (human, UniProt P00533 298-623).
T2 construct: Recombinant extracellular domain used as immunogen and ELISA coat; also called EGFRvIII Native
Described as above. The protocol: as §1, §2, §3

The target in assay [3] is T3, recombinant human wild-type EGFR protein, denatured (human, UniProt P00533 25-645).
T3 construct: Same protein as m11 after denaturation (95 °C for 5 min in PBS with 40 mM DTT); also called EGFRwt Denatured
The experiment in a line: ELISA on coated denatured recombinant antigen; Exp 2, purified mAb 1 µg/ml. The protocol: as §1, §2, §3

Assay [4] addresses T4, recombinant human EGFRvIII protein, denatured (human, UniProt P00533 298-623).
T4 construct: Same protein as m9 after denaturation (95 °C for 5 min in PBS with 40 mM DTT); also called EGFRvIII Denatured
Described as above. The protocol: as §1, §2, §3

The target of assay [5] is T1, recombinant human wild-type EGFR …. Briefly: ELISA on coated native recombinant antigen; Exp 2, purified mAb 1 µg/ml. The protocol:
as §1, §2, §3

For assay [6], the target named is T2, recombinant human EGFRvIII protein, …. Described as above. The protocol: as §1, §2, §3
Assay [7] addresses T5, human EGFRvIII amino acid residues 15 to 37, yeast-displayed (human, not fully specified).
T5 construct: also called EGFRvIII 15-37 fragment; aa 15-37
T5 peptide: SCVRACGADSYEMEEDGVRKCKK
Briefly: yeast display; smallest EGFRvIII fragment the antibody was able to bind. From the text: (§4) Assessment of the binding of anti-EGFRvIII monoclonal antibodies to the fusion proteins expressed on yeast cell surface was done by flow cytometry analysis. Yeast cells were labeled with both the anti-EGFRvIII monoclonal antibody and chicken anti-Myc antibody the latter being used to monitor the level of expression of the fusion protein. Following a wash step, binding of the primary antibodies is probed by a two-color indirect fluorescence labeling using a specific mouse and chicken secondary antibodies for each of the primary antibody respectively.

Assay [8] concerns the target T6, EGFRvIII amino acid residues 15 to 37 with Gly31 to Ala mutation, yeast-displayed (human, not fully specified).
T6 construct: The entry already carries the mutation
T6 peptide: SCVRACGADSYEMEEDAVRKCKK
Briefly: flow cytometry on yeast displaying the Ala-mutated 15-37 fragment; normalized to Myc-tag; wild-type fragment = 100%.
Excerpt: as §4
(§5) To further characterize mAb epitopes within the EGFRvIII 15-37 region, an alanine scan of this region was performed, and modified fragments were expressed at the surface of the yeast. […] The resulting DNAs were expressed at the surface of the yeast and each anti-EGFRvIII mAbs was tested on the corresponding yeast mutant strain by flow cytometry analysis. The original Ala19 and Ala22 were not mutated. Thus, this assay determined the contribution of each amino acid(s) in mAb binding in comparison to the original wild-type fragment (SEQ ID NO:5) which is attributed the value of 100%.

Assay [9] deals with T7, EGFRvIII amino acid residues 15 to 37 with Glu26 to Ala mutation, yeast-displayed (human, not fully specified).
T7 construct: The entry already carries the mutation
T7 peptide: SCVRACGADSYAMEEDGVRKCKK
Described as above.
Excerpt: as §4, §5

For assay [10], the target named is T3, recombinant human wild-type EGFR …. The experiment in a line: ELISA on coated denatured recombinant antigen; Exp 1, mAb supernatant. The protocol:
as §1, §2, §3

For assay [11], the target named is T4, recombinant human EGFRvIII protein, …. Described as above. The protocol:
as §1, §2, §3

Assay [12] deals with T8, EGFRvIII amino acid residues 15 to 37 with Val17 to Ala mutation, yeast-displayed (human, not fully specified).
T8 construct: The entry already carries the mutation
T8 peptide: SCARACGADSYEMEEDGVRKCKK
The experiment in a line: flow cytometry on yeast displaying the Ala-mutated 15-37 fragment; normalized to Myc-tag; wild-type fragment = 100%.
Excerpt: as §4, §5

B1: F265-5B7 anti-EGFRvIII monoclonal antibody (antibody, V domains shown)
VH: QIQLVQSGPELKKPGETVMISCKASGYSFTNYGMNWVKQAPEKDLKWMGWINTYTGESRYVDEFKGRFAFSLETSVSIVYLKINNLKNEDMATYFCARGPNFDVWGTGTTVTVSS
VL: not shown
notes: Mouse hybridoma IgG, tested as supernatant or Protein G purified mAb; also called 5B7-2
As to B1, the “ELISA absorbance (405 nm)” value was found to be 0.008 A405 in [1]; 1.14 A405 in assay [2]; 0 A405 in assay [3]; 0.623 A405 in assay [4]; 0.002 A405 in [5]; 0.874 A405 in assay [6]. Further, the results for the “ELISA absorbance (405 nm)” value in assay [10] and in assay [11] were 0.046 A405 and 1.67 A405, respectively. Besides, the binding result in assay [7] is on record as “binds”. Further, the “% of binding compared to the wild-type sequence” value in [8] amounted to 98.9%; in assay [9], 140%.

B2: F269-3D12 anti-EGFRvIII monoclonal antibody (antibody, V domains shown)
VH: EVQLQQSGPELVKPGSSVRISCKASGYTFTDYNMDWVKQSHGKSLEWIGTINPNNGGTSYNQKFKGKATLTVDKSSSTAYMELRSLTSEDSAVYYCARVRQLGLWFAYWGQGTLVTVSA
VL: EIVLTQSPALMAASPGEKVTITCSVSSSISSSNLHWYQQKSETSPKPWIYGTSNLASGVPVRFSGSGSGTSYSLTISSMEAEDAATYYCQQWSSYPLTFGSGTKLEIK
notes: Mouse hybridoma IgG, tested as supernatant or Protein G purified mAb; also called 3D12-2
Turning to B2, the “ELISA absorbance (405 nm)” value in [1] turned out to be 0.095 A405; in assay [2] it was 1.17 A405; in [3], 0.001 A405; in assay [4], 0.517 A405; in assay [5] it was 0.011 A405; in assay [6] it was 1.12 A405. Moreover, the “ELISA absorbance (405 nm)” value in assay [10] turned out to be 0.045 A405; in assay [11], 1.86 A405. The binding result in [7] was “binds”. Also, the “% of binding compared to the wild-type sequence” value in [12] was 116%.
